Experimental data reported in patent publication US20230340155A1 (published 2023).

Tests used:
[1] = target: T1, biotinylated Human PD-1/PDCD1 (Acro Biosystems, Cat# PD1-H82E4) (human, UniProt Q15116 25-167, biotinylated); experiment: Fab ELISA, Fab captured by anti-Fd(CH1) antibody, 5 nM biotinylated human PD-1, streptavidin-HRP chemiluminescence
T1 construct: Bought reagent; whole mature entry named
Procedure: For follow-up screening, plasmid DNA was prepared from overnight culture of the TG-1 Escherichia coli cells and the pIX gene was excised by NheI/SpeI digestion. After ligation, the DNA was transformed into TG-1 cells and grown on LB/Agar plates overnight. The next day, colonies were picked, grown overnight, and the cultures used for (i) colony sequencing of the V- regions, and (ii) induction of Fab production. For Fab production, the overnight culture was diluted 100 folds in new media and grown for 5-6 hours at 37° C. Fab production was induced by the addition of fresh media containing IPTG and the cultures were grown overnight at 30° C. The following day, the cultures were spun down and the supernatants, containing the soluble Fab proteins, were used for Fab ELISA. For the ELISA, the soluble Fab proteins were captured onto plates by a polyclonal anti-Fd(CH1) antibody. After washing and blocking, biotinylated Human PD-1/PDCD1 was added at 5 nM concentration. […] The biotinylated human PD-1 was detected by HRP-conjugated streptavidin with chemiluminescence measured in a plate reader.

cyno PD-1 (SPR analyte) = target: T2, cyno PD-1 (SPR analyte) (cynomolgus monkey); experiment: SPR, ProteOn XPR36, mAb captured by anti-human IgG Fc, cyno PD-1 as analyte, 25 C
T2 construct: Construct of the soluble analyte is not described; also called cynomolgus PD-1
Procedure: Affinity measurements were performed using a ProteOn XPR36 system (BioRad). […] Approximately 5000 RU (response units) of mAbs were immobilized. The kinetic experiments were performed at 25° C. in running buffer (DPBS+0.01% P20+100 µg/mL BSA). To perform kinetic experiments, 200 RU of mAbs were captured followed by injections of analytes (human and cyno PD-1) at concentrations ranging from 1.563 nM to 400 nM (in a 4-fold serial dilution). The association phase was monitored for 3 minutes at 50 µL/min, then followed by 10 or 15 minutes of buffer flow (dissociation phase). The chip surface was regenerated with two 18 second pulses of 100 mM H₃PO₄ (Sigma, Cat#7961) at 100 µL/min.
The collected data were processed using ProteOn Manager software. First, the data was corrected for background using inter-spots. Then, double reference subtraction of the data was performed by using the buffer injection for analyte injections. The kinetic analysis of the data was performed using a Langmuir 1:1 binding model. The result for each mAb was reported in the format of ka (On-rate), kd (Off-rate) and KD (equilibrium dissociation constant).
Affinity of the antibodies to human and cyno PD-1 was measured using SPR as described in Example 1.

T1 sequence (Q15116 25-167 limits assumed): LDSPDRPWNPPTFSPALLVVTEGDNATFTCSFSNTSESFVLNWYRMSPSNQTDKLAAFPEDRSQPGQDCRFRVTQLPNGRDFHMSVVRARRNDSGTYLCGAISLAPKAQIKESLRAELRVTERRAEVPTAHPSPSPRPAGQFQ

| Binder | fold change in ELISA binding versus the parental Fab [1] | Kd (cyno PD-1 (SPR analyte)) | koff (cyno PD-1 (SPR analyte)) | kon (cyno PD-1 (SPR analyte)) |
| --- | --- | --- | --- | --- |
| PD1B878 Fab variant with heavy chain PD1H586 (E57H) (Fab, V domains shown, Soluble Fab of the non-combinatorial CDR scan) VH: QVQLVQSGSELKKPGASVKVSCKASGYTFTDYSMHWVRQAPGQGLEWMGWINIETGHPTYAQGFTGRFVFSLDTSVSTAYLQISSLKAEDTAVYFCARDYYGTYFYAMDYWGQGTLVTVSS VL: EIVLTQSPATLSLSPGERATLSCTASSSVSSSYLHWYQQKPGLAPRLLIYSTSNLASGIPDRFSGSGSGTDYTLTISRLEPEDFAVYYCHQYHRSPLTFGQGTKLEIK | 10 fold |  |  |  |
| PD1B1088 (antibody, human IgG1, kappa, V domains shown, IgG1; also called PD1H405/PD1L651; V29F (VL) variant of PD1B878) VH: QVQLVQSGSELKKPGASVKVSCKASGYTFTDYSMHWVRQAPGQGLEWMGWINIETGEPTYAQGFTGRFVFSLDTSVSTAYLQISSLKAEDTAVYFCARDYYGTYFYAMDYWGQGTLVTVSS VL: EIVLTQSPATLSLSPGERATLSCTASSSFSSSYLHWYQQKPGLAPRLLIYSTSNLASGIPDRFSGSGSGTDYTLTISRLEPEDFAVYYCHQYHRSPLTFGQGTKLEIKR |  | 72.4 nM | 0.00479 s⁻¹ | 66100 M⁻¹ s⁻¹ |
| PD1B1086 (antibody, human IgG1, kappa, V domains shown, IgG1; also called PD1H586/PD1L469; E57H (VH) variant of PD1B878) VH: QVQLVQSGSELKKPGASVKVSCKASGYTFTDYSMHWVRQAPGQGLEWMGWINIETGHPTYAQGFTGRFVFSLDTSVSTAYLQISSLKAEDTAVYFCARDYYGTYFYAMDYWGQGTLVTVSS VL: EIVLTQSPATLSLSPGERATLSCTASSSVSSSYLHWYQQKPGLAPRLLIYSTSNLASGIPDRFSGSGSGTDYTLTISRLEPEDFAVYYCHQYHRSPLTFGQGTKLEIKR |  | 31.8 nM | 0.00544 s⁻¹ | 171000 M⁻¹ s⁻¹ |
| PD1B1089 (antibody, human IgG1, kappa, V domains shown, IgG1; also called PD1H405/PD1L652; S30P (VL) variant of PD1B878) VH: QVQLVQSGSELKKPGASVKVSCKASGYTFTDYSMHWVRQAPGQGLEWMGWINIETGEPTYAQGFTGRFVFSLDTSVSTAYLQISSLKAEDTAVYFCARDYYGTYFYAMDYWGQGTLVTVSS VL: EIVLTQSPATLSLSPGERATLSCTASSSVPSSYLHWYQQKPGLAPRLLIYSTSNLASGIPDRFSGSGSGTDYTLTISRLEPEDFAVYYCHQYHRSPLTFGQGTKLEIKR |  | 90 nM | 0.00839 s⁻¹ | 93200 M⁻¹ s⁻¹ |

Continued by falling Kd (cyno PD-1 (SPR analyte)), values first:

| fold change in ELISA binding versus the parental Fab [1] | Kd (cyno PD-1 (SPR analyte)) | koff (cyno PD-1 (SPR analyte)) | kon (cyno PD-1 (SPR analyte)) | Binder |
| --- | --- | --- | --- | --- |
|  | 11.6 nM | 0.00247 s⁻¹ | 212000 M⁻¹ s⁻¹ | PD1B1087 (antibody, human IgG1, kappa, V domains shown, IgG1; also called PD1H587/PD1L469; E57W (VH) variant of PD1B878) VH: QVQLVQSGSELKKPGASVKVSCKASGYTFTDYSMHWVRQAPGQGLEWMGWINIETGWPTYAQGFTGRFVFSLDTSVSTAYLQISSLKAEDTAVYFCARDYYGTYFYAMDYWGQGTLVTVSS VL: EIVLTQSPATLSLSPGERATLSCTASSSVSSSYLHWYQQKPGLAPRLLIYSTSNLASGIPDRFSGSGSGTDYTLTISRLEPEDFAVYYCHQYHRSPLTFGQGTKLEIKR |
|  | 4.23 nM | 0.000781 s⁻¹ | 185000 M⁻¹ s⁻¹ | PD1B1095 (antibody, human IgG1, kappa, V domains shown, IgG1; also called PD1H587/PD1L652; E57W (VH), S30P (VL) variant of PD1B878) VH: QVQLVQSGSELKKPGASVKVSCKASGYTFTDYSMHWVRQAPGQGLEWMGWINIETGWPTYAQGFTGRFVFSLDTSVSTAYLQISSLKAEDTAVYFCARDYYGTYFYAMDYWGQGTLVTVSS VL: EIVLTQSPATLSLSPGERATLSCTASSSVPSSYLHWYQQKPGLAPRLLIYSTSNLASGIPDRFSGSGSGTDYTLTISRLEPEDFAVYYCHQYHRSPLTFGQGTKLEIKR |
|  | 3.18 nM | 0.000411 s⁻¹ | 129000 M⁻¹ s⁻¹ | PD1B1092 (antibody, human IgG1, kappa, V domains shown, IgG1; also called PD1H587/PD1L651; E57W (VH), V29F (VL) variant of PD1B878) VH: QVQLVQSGSELKKPGASVKVSCKASGYTFTDYSMHWVRQAPGQGLEWMGWINIETGWPTYAQGFTGRFVFSLDTSVSTAYLQISSLKAEDTAVYFCARDYYGTYFYAMDYWGQGTLVTVSS VL: EIVLTQSPATLSLSPGERATLSCTASSSFSSSYLHWYQQKPGLAPRLLIYSTSNLASGIPDRFSGSGSGTDYTLTISRLEPEDFAVYYCHQYHRSPLTFGQGTKLEIKR |
|  | 2.18 nM | 0.000368 s⁻¹ | 169000 M⁻¹ s⁻¹ | PD1B1093 (antibody, human IgG1, kappa, V domains shown, IgG1; also called PD1H585/PD1L652; E57Y (VH), S30P (VL) variant of PD1B878) VH: QVQLVQSGSELKKPGASVKVSCKASGYTFTDYSMHWVRQAPGQGLEWMGWINIETGYPTYAQGFTGRFVFSLDTSVSTAYLQISSLKAEDTAVYFCARDYYGTYFYAMDYWGQGTLVTVSS VL: EIVLTQSPATLSLSPGERATLSCTASSSVPSSYLHWYQQKPGLAPRLLIYSTSNLASGIPDRFSGSGSGTDYTLTISRLEPEDFAVYYCHQYHRSPLTFGQGTKLEIKR |
